Measured values: the supplement of paper PMC7877785
± gives the uncertainty stated by the source.

Assay: self-splicing fitness, log relative to wild type (ln ratio); higher = more splicing; Tetrahymena group I intron in knt gene, E. coli kanamycin selection, DiMSum; sequences stand for … in CUCUCU…GGAGGGAAAAGUUAUCAGGCAUGCACCUGGUAGCUAGUCUUUAAACCAAUAGAUUGCAUCGGUUUAAAAGGCAAGACCGUCAAAUUGCGGGAAAGGGGUCAACAGCCGUUCAGUACCAAGUCUCAGGGGAAACUUUGAGAUGGCCUUGCAAAGGGUAUGGUAAUAAGCUGACGGACAUGGUCCUAACCACGCAGCCAAGUCCUAAGUCAACAGAUCUUCUGUUGAUAUGGAUGCAGUUCACAGACUAAAUGUCGGUCGGGGAAGAUGUAUUCUUCUCAUAAGAUAUAGUCGGACCUCUCCUUAAUGGGAGCUAGCGGAUGAAGUGAUGCAACACUGGAGCCGCUGGGAACUAAUUUGUAUGCGAAAGUAUAUUGAUUAGUUUUGGAGUACUCGUGGUCG
Method in brief: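 Six replicate transformations of E. coli BL21(DE3) with a pET-22b(+) library were grown overnight at 37°C or 30°C. The library randomised all eight P1ex-region intron nucleotides, the intron lying in the knt kanamycin-resistance gene, and plates were LB agar with or without 25 μg/mL kanamycin plus 100 μg/mL carbenicillin, 50 μM IPTG and 0.2% rhamnose. Pooled colonies were amplicon-sequenced on an Illumina HiSeq 2500, and fitness is the DiMSum error-weighted combination of wild-type-normalised replicate fold changes, kanamycin versus none.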

Sequence	self-splicing fitness (ln) (30 °C)	self-splicing fitness (ln) (37 °C)
GACAAGCAAUAUUACGCGUA	-1.12 ± 0.072	-0.683 ± 0.078
GACAAGCAAUAUUACGCGUG	-2.54 ± 0.076	-0.344 ± 0.071
GACAAGCAAUAUUACGCUAU	-1.96 ± 0.094	-1.17 ± 0.1
GACAAGCAAUAUUACGGACA	-1.33 ± 0.14	-0.153 ± 0.13
GACAAGCAAUAUUACGGAGA	-2.59 ± 0.18	-1.98 ± 0.14
GACAAGCAAUAUUACGGUUG	-2.3 ± 0.087	-1.15 ± 0.11
GACAAGCAAUAUUACGUCAA	-2.87 ± 0.15	-1.95 ± 0.1
GACAAGCAAUAUUACGUCUG	-3.26 ± 0.16	-2.89 ± 0.15
GACAAGCAAUAUUACGUGAA	-1.81 ± 0.076	-1.11 ± 0.089
GACAAGCAAUAUUACGUUCA	-1.21 ± 0.074	-0.263 ± 0.072
GACAAGCAAUAUUACGUUCU	-2.9 ± 0.13	-1.45 ± 0.12
GACAAGCAAUAUUACGUUUC	-4.22 ± 0.19	-2.25 ± 0.16
GACCAGCAAUAUUACGAGGA	-1.04 ± 0.12	-0.408 ± 0.11
GACCAGCAAUAUUACGCAAU	-0.846 ± 0.062	-0.343 ± 0.077
GACCAGCAAUAUUACGCAGA	-1.57 ± 0.11	-0.378 ± 0.093
GACCAGCAAUAUUACGCCAU	-3.59 ± 0.17	-2.09 ± 0.13
GACCAGCAAUAUUACGCCCA	-0.923 ± 0.16	0.179 ± 0.19
GACCAGCAAUAUUACGCCUA	-0.572 ± 0.11	0.226 ± 0.12
GACCAGCAAUAUUACGCUCG	-0.964 ± 0.13	-0.766 ± 0.12
GACCAGCAAUAUUACGCUUU	-0.00419 ± 0.078	-0.213 ± 0.1
GACCAGCAAUAUUACGGAAG	-1.42 ± 0.08	-0.75 ± 0.088
GACCAGCAAUAUUACGGCGA	-0.195 ± 0.075	0.13 ± 0.11
GACCAGCAAUAUUACGGGCA	-0.306 ± 0.078	0.16 ± 0.096
GACCAGCAAUAUUACGGGUG	-1.85 ± 0.068	-1.36 ± 0.072
GACCAGCAAUAUUACGGUGG	-2.38 ± 0.077	-0.875 ± 0.087

Sequence	self-splicing fitness (ln) (30 °C)	self-splicing fitness (ln) (37 °C)
GACCAGCAAUAUUACGGUUC	-5.29 ± 0.25	-2.73 ± 0.14
GACCAGCAAUAUUACGGUUU	-2.44 ± 0.083	-0.744 ± 0.079
GACCAGCAAUAUUACGUAGG	-2.31 ± 0.075	-1.62 ± 0.09
GACCAGCAAUAUUACGUAUG	-1.75 ± 0.065	-0.824 ± 0.076
GACCAGCAAUAUUACGUCAG	-4.79 ± 0.32	-2.85 ± 0.27
GACGAGCAAUAUUACGAACA	-0.347 ± 0.3	-1.44 ± 0.3
GACGAGCAAUAUUACGACAC	-3.03 ± 0.49	-1.55 ± 0.15
GACGAGCAAUAUUACGACUU	-0.586 ± 0.17	0.25 ± 0.19
GACGAGCAAUAUUACGAGAG	-3.77 ± 0.34	-0.809 ± 0.18
GACGAGCAAUAUUACGAGCG	-1.88 ± 0.23	–
GACGAGCAAUAUUACGAGGG	-3.12 ± 0.25	-2.97 ± 0.35
GACGAGCAAUAUUACGAUAA	–	-2.09 ± 0.43
GACGAGCAAUAUUACGAUAC	-4.85 ± 0.28	-2.16 ± 0.2
GACGAGCAAUAUUACGAUAG	–	-3.92 ± 0.46
GACGAGCAAUAUUACGAUCU	-2.04 ± 0.15	-1.13 ± 0.15
GACGAGCAAUAUUACGAUUG	-4.17 ± 0.27	-1.09 ± 0.13
GACGAGCAAUAUUACGCACG	-3.63 ± 0.23	-2.61 ± 0.25
GACGAGCAAUAUUACGCGAU	-2.42 ± 0.26	-2.36 ± 0.45
GACGAGCAAUAUUACGGAGA	–	-2.9 ± 0.38
GACGAGCAAUAUUACGGCAU	-1.4 ± 0.14	-0.955 ± 0.17
GACGAGCAAUAUUACGGUGA	-3.52 ± 0.23	-2.05 ± 0.26
GACGAGCAAUAUUACGGUUG	-2.82 ± 0.13	-1.76 ± 0.13
GACGAGCAAUAUUACGUCCG	-3.22 ± 0.27	-2.69 ± 0.36
GACGAGCAAUAUUACGUCGC	-3.25 ± 0.47	-0.634 ± 0.35
